Patent US20230203142A1, “TREATMENT OF METABOLIC DISORDERS THROUGH THE TARGETING OF A NOVEL CIRCULATING HORMONE COMPLEX” (The President and Fellows of Harvard College, priority 2020, published 2023)

Key:
FABP4 = FABP4 (Homo sapiens, UniProt P15090); assay: Antibody binding affinity for FABP4; conditions: compared to traditional therapeutic antibodies
INS1 cells [1] = assay: Glucose-stimulated insulin secretion (GSIS), INS1 cells; format: cell-based, rat
Protocol: This finding was recapitulated in both primary human islets from multiple non-diabetic donors (FIG. 6B), as well as INS1 cells (FIG. 6C). Human islets from review board approved healthy donors were isolated using the Edmonton protocol and provided by the IsletCore and Clinical Islet Laboratory (University of Alberta, Canada). Donors with a BMI<25 and HbA1c<6.0% were used for experiments. Islets were hand-picked three times and cultured at 37° C. in RPMI media with 10% FBS and 1% Penicillin/Streptomycin overnight before use. For INS1 cells, cells were plated at 8000 cells/well in 96-well plates and incubated overnight prior to experimentation. Insulin secretion assay was performed as above using 200 μl/well for each treatment. Cells were lysed using 80 μl ultrapure water and flash freezing. For siRNA experiments, INS1 cells were allowed to reach confluency before transfection of siRNA (Horizon Discovery; L-090381-02-0005) using Lipofectamine 3000 (Thermo Fischer; L3000015) according to manufacturer protocol for 48 hours prior to assays.
As additional controls, it was explored whether lipid binding was required for FABP4 action. […] FABP4 inhibitor studies were performed using BMS-309403 (10 nM; Sigma #BM0015).
To further elucidate the role of purinergic receptors in this signaling process, a potent and selective P2Y1 inhibitor, MRS2179 (Baurand et al., 2001) was utilized. […]

INS1 cells [2] = assay: ER stress and cell death markers (Western blot, QPCR); format: cell-based, rat; conditions: combined stimulation with complex and ER stress-inducer Tg
Description: The purinergic P2Y receptors activate two downstream signaling pathways; phospholipase C (PLC), which promotes the generation of IP3, as well as inhibition of cAMP generation through the activation of G proteins (Sabala et al., 2001; Seo et al., 2016). These pathways directly influence calcium flux, which regulates both insulin secretion and survival. To elucidate how the NDPK-ADK/FABP4 complex influences beta cell function to promote diabetes, the intracellular effects mediated by this complex were examined using western blotting and quantitative PCR. Western blotting and quantitative PCR (QPCR) were performed as previously described (Prentice et al., 2018). […] Protein content was evaluated by BCA (Invitrogen, USA). […]
ER calcium homeostasis is essential for a variety of processes and reduced ER calcium can induce ER stress through the accumulation or inappropriate secretion of misprocessed or misfolded proteins (Engin et al., 2014; Engin et al., 2013). […] Cells were treated for 2 hours with increasing doses of Thapsigargin or 18 hours with increasing doses of cytokines (1=TNFα (Peprotech #315-05-20 ug) […], IFNγ (Peprotech #315-01A-20 ug) 100 ng/ml, IL-1β (R&D Systems #401-ML-005) 5 ng/ml), washed with PBS, and cleaved caspase 3/7 activity was determined using the Promega Caspase-Glo 3/7 Assay System, according to manufacturer's instructions.

INS1 cells [3] = assay: Cytosolic calcium flux, Fura-2 AM imaging; conditions: 20 mM glucose
Protocol: Cells were pre-treated with P2Y1 activator (0.5 nM; MRS2365 Tocris #2157) during the pre-incubation period. Cells were stimulated with ATP (5 μM; Promega #V915A) or ADP (2.5 μM; Promega #V916A) acutely with the addition of LG and HG KRB during the serial stimulation. Cells were treated with 100 ng/ml recombinant human FABP4 (produced in-house), 200 ng/ml recombinant human ADK (Novus Biologicals, product number NBP1-44382 or R&D Systems, product number 8024-AK-025), or 100 ng/ml recombinant human NDPK-A (Acro Biosystems, product number NM1-H5147) where indicated, for the pre-incubation period, as well as during the glucose stimulation.
Briefly, INS1 cells were plated in imaging disks at 5000 cells/dish and cultured in standard media overnight. Cells were washed with PBS, and incubated in imaging buffer without glucose, with or without calcium containing Fura-2 AM (2 mM; ThermoFisher F1201) for 30 minutes at 37° C. Cells were washed twice with fresh PBS, and placed in lml imaging buffer. Calcium flux was evaluated with the addition of 20 mM glucose, 30 mM KCl, or 1 μM Thapsigargin. Extracellular calcium was added at 1.5 mM. Calcium flux measurements were performed using an epifluorescence system coupled to a Ti-S/L100 inverted microscope L100 with fluorescent light source (X-Cite 120LED System) equipped with Lambda DG-4 Plus for UV ratiometric probes. Excitations at 340 nm and 380 nm were used and an emission of 510 nm. Analysis was performed using ImageJ software. Calcium flux was measured from 50 cells per coverslip.

Sequence of FABP4 (P15090 whole entry): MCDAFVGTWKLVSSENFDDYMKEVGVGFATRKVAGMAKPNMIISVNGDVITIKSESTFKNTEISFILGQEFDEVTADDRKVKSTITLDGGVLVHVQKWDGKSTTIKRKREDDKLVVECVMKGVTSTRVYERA

B1: a-Ab: monoclonal antibody previously reported as CA33; heavy chain SEQ ID NO 446, light chain SEQ ID NO 447; binds FABP4 and NDPK (antibody, listed as Homo sapiens)
heavy: QSVEESGGRLVTPGTPLTLTCTVSGFSLSTYYMSWVRQAPGKGLEWIGIIYPSGSTYCASWAKGRFTISKASTTVDLKITSPTTEDTATYFCARPDNDGTSGYLSGFGLWGQGLVTVSSAKTTPPSVYPLAPGSAAQTNSMVTLGCLVKGYFPEPVTVTWNSGSLSSGVHTFPAVLQSDLYTLSSSVTVPSSTWPSETVTCNVAHPASSTKVDKKIVPRDC
light: DVVMTQTPASVSEPVGGTVTIKCGASEDISRYLVWYQQKPGQPPKRLIYKASTLASGVPSRFKGSGSGTDFTLTISDLECDDAATYYCQCTYGTYAGSFFYSFGGGTEVVVERTDAAPTVSIFPPSSEQLTSGGASVVCFLNNFYPKDINVKWKIDGSERQNGVLNSWTDQDSKDCTYSMSSTLTLTKDEYERHNSYTCEATHKTSTSPIVKSFNRNEC
FABP4
  binding affinity for recombinant FABP4: relatively weak binding affinity
INS1 cells [1]
  GSIS in the presence of the NDPK-ADK/FABP4 complex: rescued
INS1 cells [2]
  ER stress markers Chop and Bip (Grp78): rescued
INS1 cells [3]
  extracellular calcium influx in response to glucose: rescue
